Assay results published in publication doi:10.1101/2023.08.10.552581.

Columns and labels:
[1] = target: PAR-2 RING domain (C. elegans); assay: SEC-MALS
[2] = target: PAR-2 RING domain (C. elegans); assay: AUC

stoichiometry N [1]: 2
Kd [2]: 358 nM
Substance: PAR-2 RING domain (domain or fragment)
